Measured values taken from paper doi:10.1101/2020.09.15.297887.

Molecular target: PARP1 (UniProt P09874 1-1014)
Assay: fluorescence polarization

Chain of PARP1 (P09874 whole entry): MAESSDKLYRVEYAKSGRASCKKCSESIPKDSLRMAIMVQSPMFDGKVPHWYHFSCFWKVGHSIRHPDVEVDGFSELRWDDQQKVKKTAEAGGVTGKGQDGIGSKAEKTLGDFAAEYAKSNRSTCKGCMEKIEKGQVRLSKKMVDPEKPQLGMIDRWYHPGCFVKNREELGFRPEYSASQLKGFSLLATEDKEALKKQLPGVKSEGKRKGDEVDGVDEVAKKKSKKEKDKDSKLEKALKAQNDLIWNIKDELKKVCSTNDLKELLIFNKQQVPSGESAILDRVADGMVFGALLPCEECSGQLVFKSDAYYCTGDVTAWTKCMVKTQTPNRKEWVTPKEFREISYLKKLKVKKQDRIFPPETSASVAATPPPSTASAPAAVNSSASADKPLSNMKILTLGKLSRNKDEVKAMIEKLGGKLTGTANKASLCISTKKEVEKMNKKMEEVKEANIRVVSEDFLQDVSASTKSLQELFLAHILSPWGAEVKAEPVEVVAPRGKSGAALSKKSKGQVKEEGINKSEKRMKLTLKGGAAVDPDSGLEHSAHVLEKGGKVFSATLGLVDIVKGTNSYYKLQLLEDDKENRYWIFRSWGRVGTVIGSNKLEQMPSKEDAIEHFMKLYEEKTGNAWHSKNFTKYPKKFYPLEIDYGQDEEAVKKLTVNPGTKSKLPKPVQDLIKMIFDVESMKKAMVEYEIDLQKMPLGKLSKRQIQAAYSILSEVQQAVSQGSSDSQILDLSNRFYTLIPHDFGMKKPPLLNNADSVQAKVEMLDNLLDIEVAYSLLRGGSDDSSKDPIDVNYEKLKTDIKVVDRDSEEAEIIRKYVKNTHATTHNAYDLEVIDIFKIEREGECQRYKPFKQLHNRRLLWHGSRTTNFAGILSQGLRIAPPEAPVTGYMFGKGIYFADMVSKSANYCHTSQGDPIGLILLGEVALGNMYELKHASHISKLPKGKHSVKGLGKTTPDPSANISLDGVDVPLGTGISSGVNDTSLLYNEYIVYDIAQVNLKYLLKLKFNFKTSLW

Binder: GCTGAGCTTCTGGTGAAGCTCAGCTCGCGGCAGCTGGTGCTGCCGCGA (structured_DNA, internal fluorescein-dT (iFluorT) at position 8) [DNA dumbbell with single-strand break]
- Kd: 71 nM
